# Results: patent publication US20020119165A1 (University of Pennsylvania, published 2002)
# Ends that are not written are not given here.
# T1: HveA(200t) (UniProt Q92956 39-200, limits assumed)
# T1 construct: Immobilized on microtiter wells in all ELISAs; also called soluble form of HveA; HVEM; not shown: C-terminal histidine tag
# T1 sequence (looked up): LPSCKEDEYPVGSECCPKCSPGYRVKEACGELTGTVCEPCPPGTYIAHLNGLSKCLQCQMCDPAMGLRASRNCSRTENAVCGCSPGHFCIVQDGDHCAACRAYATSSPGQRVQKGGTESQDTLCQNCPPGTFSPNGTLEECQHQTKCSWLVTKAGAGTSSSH
# B1: BP-2 (3, 9 Ala) (peptide)
# peptide: GSADGFRVAYMH
# modifications: not fully specified (C-terminus)
# notes: Linear analog of BP-2 in which the two cysteine residues are replaced by alanine; also called linear form of BP-2
# Target: T1, HveA(200t)
# Test: inferred from competition ELISA on immobilized HveA
binder,measurement,value
B1,binding result,no binding
